One molecule from article PMC3427180, “Zea mays Taxilin Protein Negatively Regulates Opaque-2 Transcriptional Activity by Causing a Change in Its Sub-Cellular Distribution” (PLoS ONE, 2012) can be followed below.

In this test the target is T1, Full length Zea mays Opaque-2 (ZmO2) fused to the GAL4 DNA binding domain (Zea mays, UniProt P12959 1-453).
T1 sequence (looked up): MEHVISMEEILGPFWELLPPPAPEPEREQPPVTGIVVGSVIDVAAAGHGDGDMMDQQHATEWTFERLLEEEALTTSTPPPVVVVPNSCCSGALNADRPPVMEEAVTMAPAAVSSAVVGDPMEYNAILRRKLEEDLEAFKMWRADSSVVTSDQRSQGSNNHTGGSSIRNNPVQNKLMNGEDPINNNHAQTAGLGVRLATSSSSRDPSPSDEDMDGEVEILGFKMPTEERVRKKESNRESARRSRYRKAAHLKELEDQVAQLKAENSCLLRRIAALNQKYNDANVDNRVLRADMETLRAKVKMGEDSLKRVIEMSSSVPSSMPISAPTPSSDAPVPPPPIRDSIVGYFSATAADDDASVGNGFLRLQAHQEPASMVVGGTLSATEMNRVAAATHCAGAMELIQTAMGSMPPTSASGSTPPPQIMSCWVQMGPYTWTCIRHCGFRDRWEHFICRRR
The test can be described thus: cell-based or functional assay.

B1: Full length ZmTaxilin fused to the GAL4 activation domain (natural protein, Zea mays, UniProt C0P5X2 1-425, looked up)
chain: MEGSPVARLPEANSLPDGFVPDSESSDTDAAPPSSAPIVDDAIDSDSPDATNPGGEETLSDPSLPASTAEDASSAAAAEALDTLCLDVVADPERALGEHGPTTAARGEGSLKENRASEQVGAPSDQKVVKGSGEPKRKVIKHSKLEKDKELFQLAQQYHKVVAERDQAIAVKDRLESLCREFQRQNKMLKEECQRVSTEGQNMRTELSEKFDHAIKGVSAKLEEQRVERISQLEENNTLRSKLKDLADQYNITQQKYAHQLKEKMLELELADLRLQQHQEKAAQEHTQMQLYAEQVSQLMTTEKNLRLQLASDGERFQHFQDALSKSNEVFETYKQEMEKMISVIKNLKKENEFLKGKCENSDIAIVKLIEERELTKKQIEKLKNQREKLESLCRTLQAERKQGPSASIPDAPSSQEVSATSQES
As for B1, the “GUS/luciferase ratio from the z1C (22-kD zein) promoter reporter in onion epidermal cells; YFP-O2 co-expressed with CFP-Taxilin against YFP-O2 alone” value was found to be 47%.
